Positions count from the first letter of the chain named. Names may count otherwise.

We go through two proteins from paper PMC8112011, “Adaptive laboratory evolution accelerated glutarate production by Corynebacterium glutamicum” (Microbial Cell Factories, 2021).

Substrate in this data set: NC(=O)CC[C@H](N)C(=O)O
Put plainly: cells, lysate or membranes. Type of data set: biochemical, Corynebacterium glutamicum. Conditions: 1.5 mM NADPH, 35 mM 2-oxoglutarate, 100 mM phosphate pH 7.0, 30 °C.

B1: GltBD (GOGAT, L-glutamic acid-2-oxoglutarate aminotransferase) (Corynebacterium glutamicum ATCC 13032) (protein)
chain: CGVAFIADIHGRPSRSIVDRALEALRNIDHRGAAGAEKNTGDGAGILMQIPDGFYREVSGIELPEAGEYATGIAFLPRGRMAMMDAQKEIERIAKQEGADVLGWRMVPFDSRDLGSMAEEAMPSFAQIFLTVPGKSGEDLDRVMFFIRKRCERELGTTNGRDTVYFPSLSSRTIIYKGMLTTLQLEGFFEDLGDARLESAIAIVHSRFSTNTFPSWPLAHPYRFVAHNGEINTVRGNENWMRAREALIKNDKLGNLSSVLPICTPEGSDTARFDEALELLHLGGYSLPHAVAMMIPQAWEHNKTLSPELRDFYEYHSCLMEPWDGPAALAFTDGRFVGAVLDRNGLRPGRITITDSGLVVMASESGVLDLREESVVKRTRVQPGRMFLVDTAEGRIVEDEEIKQKLSEAQPYGEWIRDNFVHLDRLPQTRYNYMAHSRAVLRQRVFGITEEDVDLLLLPMARQGAEAIGSMGSDTPIAALSQRPRMLYDFFAQRFAQVTNPPLDSIREKPVTSMFTLLGAQSDVLNPGPDAARRIRLESPIIDNHELATLINANAHGEWDSFGAAVISGLYPVAHHGAGMKAAIARVRREVSEAIRNGKTLIVLSDRESDERMAPIPALLLTSAVHQYLVQQRTRTQCSLVVESGDAREVHHLAMLIGFGADAINPYMAFETIDELRMKGQLGDLSLDEASRNYIKAATTGVLKVMSKMGIATVSSYRGAQLADVTGLHQDLLDNYFGGIASPISGIGLDEVAADVEARHRSAFLPRPEEHAHRELDLGGEYKWRREGEYHLFNPETIFKLQHATRSGSYEIFKDYTRKVDDQSTRLGTIRGLFEFSTDRKPISVSEVEPVSEIVKRFSTGAMSYGSISAEAHEVLAIAMNRLGGMSNSGEGGEDARRFDVEPNGDWKRSAIKQVASGRFGVTSHYLNNCTDIQIKMAQGAKPGEGGQLPPNKVYPWVAEVRITTPGVGLISPPPHHDIYSIEDLAQLIHDLKNANPRARIHVKLVAEQGVGTVAAGVSKAHADVVLISGHDGGTGASPLTSLKHAGGPWELGLAETQQTLLLNGLRDRIRVQCDGQLKTGRDVVIAALLGAEEFGFATAPLVVEGCIMMRVCHLDTCPVGIATQNPDLRSKFTGKAEHVVNFFTFIAQEVREYLAQLGFRSIDEAVGQAQVLRKRSGIPADSRAAHLDLSPIFHRPETPHFPTQDVRCTKTQEHSLEKALDNAFIDKASDTITRAAAGVETSIVIDSSISNVNRSVGTMLGSAVSRVAGAQGLPDGTITLNLQGCAGNSFGAFIPRGITINLTGDANDFVGKGLSGGKIVIKPSAQAPKQLKNNPNIIAGNVLGYGATSGELFIRGQVGERFCVRNSGATAVVEGIGNHGCEYMTGGRVLVLGPVGENFGAGMSGGIAYLANSPDLNQKINGELVDVVPLSADDLTWADELIARHRELTGSETKLRAQDLVKIMPRDFQKVLNIIETAHAEGQDPAIKIMEAVS
notes: full-length gltBD on plasmid pEKEx3, overexpressed in C. glutamicum GRLys1ΔgltB (chromosomal gltB deleted); untagged; crude extract; with Glutamate synthase [NADPH] small chain
In general, Km refers to the substrate concentration at which the rate is half of its maximum. As for B1, the Km amounted to 250 ± 30 µM.

B2: GltBD (GOGAT, L-glutamic acid-2-oxoglutarate aminotransferase) (Corynebacterium glutamicum ATCC 13032; E686Q) (protein)
chain: B1 chain with E671Q
notes: as for B1
Consider B2, for which the Km was determined as 520 ± 40 µM.
